# Biological target: T1, recombinant human Hsp90β (human, UniProt P08238 1-724)
# T1 construct: Heat shock protein 90 beta (Hsp90β, constitutively expressed form, gene HSP90AB1), human, recombinant; Commercial protein; also called heat shock protein 90; purified Hsp90; source: bought: StressMarq (recombinant)
# Experiment: co-sedimentation; Hsp90β mixed with C9 or BSA (1 µg each) in TBS, 1 h at 37 °C; sucrose density gradient (1–20% by text and methods, 10–30% by legend), 18 h ultracentrifugation, 4 °C; fractions dot blotted with anti-Hsp90β or anti-C9
# Details: both partners purified
# Chain of purified human C9 (P02748 22-559, change not shown): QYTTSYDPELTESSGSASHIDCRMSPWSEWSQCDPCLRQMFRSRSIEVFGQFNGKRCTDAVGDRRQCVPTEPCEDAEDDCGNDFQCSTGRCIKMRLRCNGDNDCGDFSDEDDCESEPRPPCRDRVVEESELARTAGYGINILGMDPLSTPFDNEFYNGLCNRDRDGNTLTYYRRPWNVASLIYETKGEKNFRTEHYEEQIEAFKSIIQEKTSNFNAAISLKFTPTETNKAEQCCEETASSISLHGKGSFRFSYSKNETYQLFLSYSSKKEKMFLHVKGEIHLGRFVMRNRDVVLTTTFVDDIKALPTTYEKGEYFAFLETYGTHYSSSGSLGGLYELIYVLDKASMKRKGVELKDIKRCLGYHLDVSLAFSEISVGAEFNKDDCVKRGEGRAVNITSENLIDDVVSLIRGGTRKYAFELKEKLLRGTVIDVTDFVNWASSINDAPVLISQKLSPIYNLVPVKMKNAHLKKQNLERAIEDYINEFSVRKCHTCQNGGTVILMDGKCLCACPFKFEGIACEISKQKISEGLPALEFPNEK
# T1 sequence (P08238 whole entry): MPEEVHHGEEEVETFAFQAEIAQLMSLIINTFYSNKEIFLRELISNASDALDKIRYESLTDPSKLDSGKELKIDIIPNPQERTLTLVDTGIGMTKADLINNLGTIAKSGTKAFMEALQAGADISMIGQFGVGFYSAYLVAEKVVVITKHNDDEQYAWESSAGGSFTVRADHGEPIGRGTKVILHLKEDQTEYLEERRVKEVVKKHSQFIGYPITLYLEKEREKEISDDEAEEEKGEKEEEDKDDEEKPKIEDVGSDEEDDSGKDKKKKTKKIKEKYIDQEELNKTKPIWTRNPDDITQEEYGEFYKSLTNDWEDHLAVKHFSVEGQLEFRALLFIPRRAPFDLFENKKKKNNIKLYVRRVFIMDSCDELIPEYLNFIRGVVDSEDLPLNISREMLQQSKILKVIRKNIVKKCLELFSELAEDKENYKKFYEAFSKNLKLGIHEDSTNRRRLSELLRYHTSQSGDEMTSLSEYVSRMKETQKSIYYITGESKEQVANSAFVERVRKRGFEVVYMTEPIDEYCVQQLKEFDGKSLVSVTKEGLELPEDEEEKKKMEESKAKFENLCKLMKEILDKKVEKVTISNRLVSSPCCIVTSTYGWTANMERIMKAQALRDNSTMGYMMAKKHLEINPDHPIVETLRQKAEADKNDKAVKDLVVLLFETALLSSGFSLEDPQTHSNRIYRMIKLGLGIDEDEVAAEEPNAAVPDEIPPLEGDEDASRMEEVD
binder,measurement,value
"purified human C9 (natural protein, Complement component C9, human, purified; also called complement C9; complement protein C9; source: bought: Complement Technology Inc. (purified human C9)) not shown",binding result,binds

# Source: PMC5833442, “Cooperation between Hsp90 and mortalin/GRP75 in resistance to cell death induced by complement C5b-9” (Cell Death & Disease, 2018)
